Laboratory results reported in PMC7015683.

Target: insulin-like growth factor 2 receptor (IGF2R), native full-length, from bovine liver (bovine) (UniProt P08169)
Assay: pull-down

UniProt P08169, sequence (P08169 45-2499): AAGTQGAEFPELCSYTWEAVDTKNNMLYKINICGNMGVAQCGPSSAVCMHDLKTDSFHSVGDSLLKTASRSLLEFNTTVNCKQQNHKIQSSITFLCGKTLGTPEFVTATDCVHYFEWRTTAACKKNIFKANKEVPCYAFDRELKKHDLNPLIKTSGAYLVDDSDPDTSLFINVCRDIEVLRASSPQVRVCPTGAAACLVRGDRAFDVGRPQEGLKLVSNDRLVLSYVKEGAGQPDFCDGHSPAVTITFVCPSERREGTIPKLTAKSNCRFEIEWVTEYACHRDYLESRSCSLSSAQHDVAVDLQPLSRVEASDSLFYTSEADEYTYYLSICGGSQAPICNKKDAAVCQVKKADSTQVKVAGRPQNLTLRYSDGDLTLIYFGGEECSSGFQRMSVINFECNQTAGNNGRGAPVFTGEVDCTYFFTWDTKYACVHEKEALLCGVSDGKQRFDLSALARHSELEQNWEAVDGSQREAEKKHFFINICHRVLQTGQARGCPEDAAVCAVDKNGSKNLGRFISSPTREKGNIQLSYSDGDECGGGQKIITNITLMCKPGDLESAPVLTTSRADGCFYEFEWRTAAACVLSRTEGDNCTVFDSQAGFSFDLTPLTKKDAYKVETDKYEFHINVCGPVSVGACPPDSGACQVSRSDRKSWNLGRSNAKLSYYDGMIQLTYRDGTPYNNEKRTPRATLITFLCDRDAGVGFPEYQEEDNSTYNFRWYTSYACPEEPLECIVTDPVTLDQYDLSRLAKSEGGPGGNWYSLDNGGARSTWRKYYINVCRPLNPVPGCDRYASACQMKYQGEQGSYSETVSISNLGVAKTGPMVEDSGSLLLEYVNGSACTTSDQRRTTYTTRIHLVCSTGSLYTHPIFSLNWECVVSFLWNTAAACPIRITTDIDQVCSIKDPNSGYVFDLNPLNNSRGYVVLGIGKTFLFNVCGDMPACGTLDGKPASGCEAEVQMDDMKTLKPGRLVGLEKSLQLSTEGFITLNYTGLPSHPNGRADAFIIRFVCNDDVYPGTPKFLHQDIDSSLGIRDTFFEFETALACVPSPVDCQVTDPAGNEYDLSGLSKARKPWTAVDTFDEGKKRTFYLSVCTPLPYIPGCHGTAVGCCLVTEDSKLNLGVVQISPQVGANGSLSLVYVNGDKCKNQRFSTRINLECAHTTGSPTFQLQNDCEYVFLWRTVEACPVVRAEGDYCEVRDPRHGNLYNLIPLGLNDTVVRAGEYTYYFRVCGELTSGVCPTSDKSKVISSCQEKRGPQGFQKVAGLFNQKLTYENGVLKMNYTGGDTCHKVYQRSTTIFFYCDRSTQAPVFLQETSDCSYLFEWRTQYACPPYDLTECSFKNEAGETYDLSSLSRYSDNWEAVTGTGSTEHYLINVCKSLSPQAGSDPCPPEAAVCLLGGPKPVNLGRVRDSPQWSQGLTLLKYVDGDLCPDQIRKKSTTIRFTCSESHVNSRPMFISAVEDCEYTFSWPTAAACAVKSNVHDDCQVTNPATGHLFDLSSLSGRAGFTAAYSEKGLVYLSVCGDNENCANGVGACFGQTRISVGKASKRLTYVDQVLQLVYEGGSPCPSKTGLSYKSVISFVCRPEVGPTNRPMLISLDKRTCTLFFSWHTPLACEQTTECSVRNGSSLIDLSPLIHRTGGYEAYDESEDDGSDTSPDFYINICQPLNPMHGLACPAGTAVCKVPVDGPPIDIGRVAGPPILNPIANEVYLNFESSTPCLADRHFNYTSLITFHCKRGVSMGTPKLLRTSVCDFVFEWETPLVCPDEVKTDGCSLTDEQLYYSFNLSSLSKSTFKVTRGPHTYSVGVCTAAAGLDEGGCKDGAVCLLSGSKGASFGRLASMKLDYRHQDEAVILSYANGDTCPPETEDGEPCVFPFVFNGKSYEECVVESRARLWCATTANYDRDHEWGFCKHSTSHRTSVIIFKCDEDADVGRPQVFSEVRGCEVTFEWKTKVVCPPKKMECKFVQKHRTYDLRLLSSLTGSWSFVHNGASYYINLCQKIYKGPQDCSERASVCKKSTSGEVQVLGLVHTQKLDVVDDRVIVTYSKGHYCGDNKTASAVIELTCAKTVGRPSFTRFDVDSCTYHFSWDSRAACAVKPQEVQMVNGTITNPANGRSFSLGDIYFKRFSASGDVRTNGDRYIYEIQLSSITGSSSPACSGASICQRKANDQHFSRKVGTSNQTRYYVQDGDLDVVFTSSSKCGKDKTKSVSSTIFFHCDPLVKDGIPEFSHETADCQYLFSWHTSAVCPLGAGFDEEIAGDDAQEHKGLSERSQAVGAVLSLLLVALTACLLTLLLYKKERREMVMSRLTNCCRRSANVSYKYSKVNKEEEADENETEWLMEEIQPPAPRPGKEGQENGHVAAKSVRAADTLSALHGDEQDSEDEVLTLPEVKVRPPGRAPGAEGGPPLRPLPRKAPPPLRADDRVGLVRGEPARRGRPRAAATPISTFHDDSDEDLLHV

percent reduction of binding against WT IGF2 [%]	Substance
20 to 30	Flag-IGF2 F28A V43D double mutant (ligand)
20 to 30	Flag-IGF2 F48D mutant (ligand)
> 60	Flag-IGF2 L53D mutant (ligand)
